Target: Murine CD40L on the Th2 cell line D10.G4.1 (murine) (UniProt P27548)
Assay: cell-based or functional assay

Sequence of Murine CD40L on the Th2 cell line D10.G4.1 (murine) (P27548 whole entry): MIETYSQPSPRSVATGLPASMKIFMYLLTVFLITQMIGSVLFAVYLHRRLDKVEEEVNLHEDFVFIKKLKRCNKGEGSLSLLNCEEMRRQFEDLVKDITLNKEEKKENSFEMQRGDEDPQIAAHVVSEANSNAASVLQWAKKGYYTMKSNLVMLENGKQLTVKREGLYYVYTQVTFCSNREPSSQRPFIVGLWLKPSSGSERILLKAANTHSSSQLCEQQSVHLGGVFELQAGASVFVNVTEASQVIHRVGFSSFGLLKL

IC50, inhibition of CD86 expression on CD19 gated B cells: 0.1 nM
Substance: MR1, anti-murine CD40L antibody

From patent US20130079280A1
